Key:
[1] = tested on: D. vulgaris biofilm; assay: Biofilm formation assay, crystal violet staining, 96-well plates; format: cell-based, Desulfovibrio vulgaris Hildenborough
Procedure: (§1) D. vulgaris, D. desulfuricans and plasmid-transformed strains of both of these bacteria were grown anaerobically in Modified Baar's medium (300 μL) in 96-well micro-titer plates (Fisher Scientific, cat no. 07-200-656) for 24 hours at 30° C. without shaking, after which time the planktonic cell turbidity in each well was measured spectrophotometrically at 620 nm using a Sunrise™ microplate reader (TECAN, Switzerland). The plates were then incubated under the same conditions for an additional 24 to 48 hours, after which biofilm formation was measured by crystal violet staining. For biofilm dispersal assays, 24 hours after seeding the plates for biofilm growth, arabinose (10 mM) was added to strains harboring plasmids allowing arabinose-based induction of DVU2956 (SEQ ID NO:2). The arabinose-treated strains were then incubated anaerobically for another 24 hours without shaking, after which time biofilm formation was measured by crystal violet staining.
For crystal violet staining, the liquid portion of the cultures was discarded and the wells were washed by dipping the plates into 1 L of distilled water, after which the plates were dried with paper towel. Crystal violet (0.1%, 300 μL) was added to each well and the plates were incubated for 20 minutes at room temperature. After discarding the bulk of the staining solution, the wells were washed three times with distilled water as above to remove unbound crystal violet. The wells were then soaked for 5 minutes in 95% ethanol (300 μL) to dissolve the remaining (bound) crystal violet, which was then measured spectrophotometrically at 540 nm using the Sunrise™ microplate reader. Normalized biofilm formation percentage values were calculated based on the ratio of […] to compare the degree of biofilm formation or dispersal.

[2] = tested on: established D. vulgaris biofilms; assay: Biofilm dispersal assay, arabinose induction, crystal violet staining; format: cell-based, Desulfovibrio vulgaris Hildenborough; settings: after 24 hours; expression from inducible promoter PBAD on pMQ70; vs D. vulgaris/pMQ70
Procedure: as §1
(§2) For crystal violet staining, the liquid portion of the cultures was discarded and the wells were washed by dipping the plates into 1 L of distilled water, after which the plates were dried with paper towel. […] The wells were then soaked for 5 minutes in 95% ethanol (300 μL) to dissolve the remaining (bound) crystal violet, which was then measured spectrophotometrically at 540 nm using the Sunrise™ microplate reader. […]

[3] = tested on: D. desulfuricans biofilm; assay: Biofilm formation assay, crystal violet staining, 96-well plates; format: cell-based, Desulfovibrio desulfuricans (DSM 12129); settings: at 24 hours; D. desulfuricans/pVLT33-Pdvu0304-dvu2956 vs D. desulfuricans/pVLT33-Pdvu0304
Procedure: as §1, §2

[4] = tested on: D. vulgaris biofilm cells; assay: Hydrogen sulfide production assay (methylene blue spectrophotometric); format: cell-based, Desulfovibrio vulgaris Hildenborough
Procedure: Hydrogen sulfide (H2S) by D. vulgaris strains was measured via a methylene blue spectrophotometric assay (Rabinowitz, 1978, Methods Enzymol. 53:275-277; incorporated herein by reference). Briefly, in this assay, N,N-dimethyl-p-phenylenediamine dihydrochloride is converted into methylthioninium chloride (methylene blue) by reacting with H2S dissolved in hydrochloride acid in the presence of ferric chloride. For a 96-well screening format, D. vulgaris was anaerobically grown in Modified Baar's medium in a 96-well plate (starting turbidity/OD of 0.05 at 600 nm, 150-μL culture volume) and incubated for 48 hours for biofilm formation. Anaerobically, 25 μL of each biofilm culture was transferred to another 96-well plate containing 225 μL deoxygenated water per well to render a 10-fold dilution of the transferred culture. Next, 5% N,N-dimethyl-p-phenylenediamine dihydrochloride (24.5 μL, prepared in 5.5 N HCl) (Sigma-Aldrich, cat. no. 536-46-9) was added to each well. After mixing the wells gently by pipetting and anaerobically incubating the mixes at room temperature for 3 minutes, the 96-well plate was removed from the anaerobic chamber and the absorbance at 670 nm of each well was measured using a Sunrise™ microplate reader.
For a more rigorous H2S assay, sealed glass vials were used to prevent H2S loss. D. vulgaris strains were grown anaerobically for 7 to 10 days in 10 mL of Modified Baar's medium with 2.5 g of sterilized glass wool to promote biofilm formation. Supernatants from these cultures were transferred by syringe to another sealed vial for dilution with 10 mL of PBS buffer. Anaerobically, 1 mL of diluted sample was then transferred by syringe to another sealed bottle with 125 μL of 12% sodium hydroxide and 3.25 mL of 1% zinc acetate (to fix the sulfide from H2S by forming ZnS precipitates). […] Water (2.125 mL) was added and mixed, and then at least 1 mL of each reaction was removed to determine absorbance at 670 nm.

[5] = tested on: Pdvu2956 (dvu2956 gene regulatory sequence); assay: Pdvu2956-mNeonGreen reporter fluorescence assay; format: cell-based, E. coli BL21(DE3); settings: ectopic expression induced by 1 mM IPTG for 90 minutes; E. coli/pMQ70-Pdvu2956-mNeonGreen/pET27b-dvu2956; excitation 425 nm, emission 517 nm
Source text: A D. vulgaris dvu2956 gene regulatory sequence (SEQ ID NO:12), which comprises (in 5′ to 3′ direction) predicted promoter (SEQ ID NO:13) and 5′-untranslated region (5′-UTR) sequences (SEQ ID NO:14), was linked upstream of a synthetic ribosome binding site (RBS, SEQ ID NO:15) and a codon-optimized nucleotide sequence (SEQ ID NO:16) encoding a monomeric yellow-green fluorescent protein (mNeonGreen™, GenBank® Accession No. KC295282). This nucleotide sequence (provided as SEQ ID NO:17) was constructed in E. coli TG1 to render plasmid construct pMQ70-Pdvu2956-mNeonGreen (8164 bp) and then transferred into D. vulgaris (wild type) and E. coli strain BL21(DE3), the latter of which was already transformed with plasmid pET27b-dvu2956 (pET27b-dvu2956 allows for IPTG-induced expression of ectopic DVU2956 [SEQ ID NO:2]). PCR analyses confirmed the presence of plasmids pMQ70-Pdvu2956-mNeonGreen (in both strains) and pET27b-dvu2956 (in E. coli). Additional D. vulgaris and E. coli strains that were transformed with plasmid pMQ70 were prepared, and served as negative controls in the fluorescence assays described below.
A similar analysis was conducted to test whether Pdvu2956 can heterologously drive gene expression in bacteria other than sulfate-reducing bacteria. […]

[6] = at 48 hours, biofilm-specific expression from pVLT33-Pdvu0304-based construct in D. vulgaris, vs wild type and D. vulgaris/pVLT33-Pdvu0304

B1: DVU2956: D. vulgaris Hildenborough sigma 54-dependent enhancer-binding protein, 345 aa, SEQ ID NO:2, expressed in the bacteria from plasmids (protein)
chain: MSGKKLPHSGNSLPIEGTVSPQRETLQNGTDFLLLSGVMQRLRVLASQVASSDAPVLIHGETGTGKELFARLIHDMGIRAKKPFVAVNCGVHEGELFADKFFGHEQGAFTGAHRMSQGCFELASEGTLFLDEVGEIPGANQADFLRVLEEKRFRRIGGQRDIPFQARIVAASNRDLQEMVGQGQFRADLFYRLNVIPVVLPPLRARKEEVVPLARHFLTHYGDKYHRPGVRFAPETEQALAAYQWPGNVRELKNLVERIALLAPEGVLGPEHLPLELRSAAAVEVGVPHEVPEDLSLDRARREAEVRVILKAMRATGGNKGEAARLLGVSPRTLRYKFAEYALRF
modifications: Desulfovibrio vulgaris Hildenborough
inhibition of biofilm formation ([1]; at 24 hours, D. vulgaris (dvu2956-) complemented with pMQ70-Pdvu2956-dvu2956, vs D. vulgaris (dvu2956-)/pMQ70-Pdvu2956): 48±11%
dispersal of established biofilms [2]: 42±4%
inhibition of biofilm formation [3]: 78±9%
decrease of H2S production ([4]; 96-well culture, D. vulgaris/pVLT33-Pdvu0304-dvu2956 vs D. vulgaris/pVLT33-Pdvu0304): 51±2%
decrease of H2S production ([4]; D. vulgaris (dvu2956-)/pMQ70-Pdvu2956-dvu2956 vs D. vulgaris (dvu2956-)/pMQ70-Pdvu2956): 45±13%
inhibition of H2S production ([4]; sealed vials, biofilm-specific expression): 34.6±0.6%
higher fluorescence signal vs negative control [5]: ~14 fold

B2: DVU2960: D. vulgaris Hildenborough protein, 474 aa, SEQ ID NO:4, expressed from pVLT33-Pdvu0304-dvu2960 (protein)
chain: MKQASLPAGARIAGLVGRELALGPVFDAIPTGLAVLDADLRICLMNRALETMTGFTTAEVAGIPCRHVLRASVCLHRCPTRTAVCDATGGNAPCHAQEGDLLNRHRRRIPVRLTLAPLHDAQGQLCGWLHTAEDLSLVRELEERCSKGQASGPLVGRSVVMEELFRTVQALAQTETPVLITGETGTGKDAVAETIHKASPRGREPFVKASLSSLPDFLVESELFGHRKGAFPGAEEDKPGRFRMAQGGTLCLSELGDLPPAMQGRLVTFLDEGLVWPVGATDPVRCDVRLLVASNLDLEAMVASGRLREDLYSRLAAVRIHLPPLRERGEDLEFLLSHYLAHFAARLRKTIHGFSGKSLRVLLAYGFPGNVRELKNIVEYAATLCTGEVVMPSHLPAYLFHTRPAAAPPRAIERDTPKGAAEDEASARSSVVDLERRLIVDALARAGNRKGEAARILGWGRSTLWRKMKQFGLE
modifications: Desulfovibrio vulgaris Hildenborough
inhibition of biofilm formation [1, 6]: 95%

B3: DVU2962: D. vulgaris Hildenborough protein, 577 aa, SEQ ID NO:8, expressed from pVLT33-Pdvu0304-dvu2962 (protein)
chain: MKNPLGTMLSRLRSVFDVPDEIAPERYRMLRRKITLLMTAVSVLPLLILTAVSYHQYQSTLTREIVTPVRALVNKTRHSFELFLAERSSTVSLLAKTYSMAELSDEKNLNRIFLALKGEFPGFVDLGVIDGRGVQVGYVGPYDVRGKNYSEADWYNRTRVKGVYISDVFMGFRRFPHIAIAVQRMNPDGSSWMLRATIETTQFDRLIASMGLDPESDAFLINTAGVLQTNSRFYGNVLDVMPMPVPHLSYEPSIIDTEDPEGRQIFLSSAFLQNADFAIVAVKPKTEILRPWTSLRSDLLIFVAFSVALIISAAFGFTDMLVRRMRDSDERRIAAFVQIEHTQKLSSIGRLAAGVAHEINNPLAIINEKAGLAADLIALSQDFPQKERFSAIVEAISRSVDRCRSITHRLLGFSRRMDATYEQLDVNGILKETMSFLEQEAVHRSITIGTSLDAGLPRITSDRGQLQQVFLNIINNAFAAVQDGGSVTLTTFAADGGMVGVSIQDNGKGMSEEVQRHIFEPFFTTKKTAGTGLGMFITYGIIKRLGGEIGINSREGVGTTVTVYLPQDAPAPQSLEN
modifications: Desulfovibrio vulgaris Hildenborough
inhibition of biofilm formation [1, 6]: 90%

B4: DVU2964: D. vulgaris Hildenborough protein, 219 aa, SEQ ID NO:10, expressed from pVLT33-Pdvu0304-dvu2964 (protein)
chain: MRENACVGCLTASASHELQNALAVIRESAGLMQDLIALGGENIPRRERIVELLSLIQQQVARGGELAGGLNTLGHAWEEDDGDLARILEEFVILAGRMGRMRSVTVGLAPGESGLRAPSAGLALRVLLFDLLQTCLEEAPGCALTFAPARRDGIPGIHLRVGLARCDATTDVLRRLDAQLARLGARKEPDNGHGTPARDEPDGVLYYFTACPSATGHRA
modifications: Desulfovibrio vulgaris Hildenborough
inhibition of biofilm formation [1, 6]: 45%

From US12173292B2, “Controlling bacterial biofilms” (LANXESS Corporation, priority 2019, dated 2024)
